From PMC6513101, “Experimentally guided computational antibody affinity maturation with de novo docking, modelling and rational design” (PLoS Computational Biology, 2019)
Substitutions are numbered along the chain they refer to. Names and notes keep the numbering of the source.

T1: biotinylated murine CCL20, O89093
T1 chain: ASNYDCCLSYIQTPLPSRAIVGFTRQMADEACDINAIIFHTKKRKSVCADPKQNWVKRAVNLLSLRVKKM

T2: murine CCL20 (mouse, UniProt O89093 28-97)
T2 chain: T1 chain

B1: AB1-C1-16 (H:S28R, L:G35Y) (antibody, V domains shown)
VH: QVQLQQSGAELAKPGSSVKISCKAYGRSFTTNSIHWIKQTTGQALEWTGYIAPGSGGARYNEKFKGKATLTVDKSSGTAYMQLSSLTPVDTAVYYCALNIGTNPFTYWGQGTLVTVSS
VL: DIVMTQGALPNPVPSGESVSITCRSSKSLLYSDYKTYLNWYLQRPGQSPQLLIYWMSTRASGVSDRFSGSGSGTDFTLKISGVEAEDVGVYYCQQGLEFPRTFGSGTKLEIK
notes: IMGT numbering; IgG1, as m1; also called clone 1–16; combination clone; source: HEK293FT, transiently transfected, purified (Protein A)
B2: AB1-C1 (H:S28R) (antibody, V domains shown)
VH: B1 VH
VL: B1 VL with Y34G
B3: AB1-C16 (L:G35Y) (antibody, V domains shown)
VH: B1 VH with R27S
VL: B1 VL
notes: IMGT numbering; IgG1, as m1; also called clone 16; VL clone 16; source: HEK293FT, transiently transfected, purified (Protein A)
B4: AB1 alanine variant 7 (H:S28A, H:N113A, L:K36A) (antibody, V domains shown)
VH: B1 VH with R27A, N103A
VL: B1 VL with Y34G, K35A
notes: IMGT numbering; IgG1, as m1; source: HEK293FT, transiently transfected, purified (Protein A)
B5: AB1 Fab fragment (Fab, V domains shown)
VH: B1 VH with R27S
VL: B1 VL with Y34G
notes: Fab of m1; also called parental AB1 (Fab); source: papain cleavage of the purified antibody; purified by anion and cation exchange chromatography
B6: AB1-C1 Fab fragment (H:S28R) (Fab, V domains shown)
VH: B1 VH
VL: B1 VL with Y34G
notes: IMGT numbering; Fab of m28; also called Clone AB1-C1; source: papain cleavage of the purified antibody; purified by anion and cation exchange chromatography
B7: AB1-C16 Fab fragment (L:G35Y) (Fab, V domains shown)
VH: B1 VH with R27S
VL: B1 VL
notes: IMGT numbering; Fab of m43; source: papain cleavage of the purified antibody; purified by anion and cation exchange chromatography
B8: AB1-C1-16 Fab fragment (H:S28R, L:G35Y) (Fab, V domains shown)
VH: B1 VH
VL: B1 VL
notes: IMGT numbering; Fab of m48; also called combination clone AB1-C1-16; source: papain cleavage of the purified antibody; purified by anion and cation exchange chromatography
B9: AB1 anti-muCCL20 monoclonal antibody (antibody, V domains shown)
VH: B1 VH with R27S
VL: B1 VL with Y34G
notes: VH of AB1; VL of AB1; IgG1 (in-house mammalian expression vector); hybridoma derived; also called WT AB1; parental AB1; source: HEK293FT, transiently transfected, purified from supernatant (Protein A)
B10: AB1 alanine variant 23 (H:T35A/N107A/L:Y31A) (antibody, V domains shown)
VH: B1 VH with R27S, T30A, N99A
VL: B1 VL with Y31A, Y34G
notes: IMGT numbering; IgG1, as m1; intermediate construct; source: HEK293FT, transiently transfected, purified (Protein A)
B11: AB1 alanine variant 22 (L:Y31A/D34A) (antibody, V domains shown)
VH: B1 VH with R27S
VL: B1 VL with Y31A, D33A, Y34G
notes: as for B10
B12: AB1 alanine variant 12 (H:N107A) (antibody, V domains shown)
VH: B1 VH with R27S, N99A
VL: B1 VL with Y34G
notes: as for B4
B13: AB1 affinity maturation variant 15 (L:D34Q) (antibody, V domains shown)
VH: B1 VH with R27S
VL: B1 VL with D33Q, Y34G
notes: as for B4
B14: AB1 alanine variant 3 (H:R66A) (antibody, V domains shown)
VH: B1 VH with R27S, R59A
VL: B1 VL with Y34G
notes: as for B4
B15: AB1 alanine variant 9 (H:T35A, H:N107A, L:R116A) (antibody, V domains shown)
VH: B1 VH with R27S, T30A, N99A
VL: B1 VL with Y34G, R101A
notes: as for B4
B16: AB1 alanine variant 8 (H:T110A, L:Y31A, L:D34A) (antibody, V domains shown)
VH: B1 VH with R27S, T102A
VL: B1 VL with Y31A, D33A, Y34G
notes: as for B4
B17: AB1 alanine variant 15 (L:D34A) (antibody, V domains shown)
VH: B1 VH with R27S
VL: B1 VL with D33A, Y34G
notes: as for B4
B18: AB1 affinity maturation variant 19 (L:F114R) (antibody, V domains shown)
VH: B1 VH with R27S
VL: B1 VL with Y34G, F99R
notes: as for B4
B19: AB1 alanine variant 11 (H:Y55A) (antibody, V domains shown)
VH: B1 VH with R27S, Y50A
VL: B1 VL with Y34G
notes: as for B4
B20: AB1 alanine variant 6 (H:S29A, L:Y31A, L:Y38A) (antibody, V domains shown)
VH: B1 VH with R27S, S28A
VL: B1 VL with Y31A, Y34G, Y37A
notes: as for B4
B21: AB1 alanine variant 13 (H:T110A) (antibody, V domains shown)
VH: B1 VH with R27S, T102A
VL: B1 VL with Y34G
notes: as for B4
B22: AB1 alanine variant 21 (L:Y31A/Y38A) (antibody, V domains shown)
VH: B1 VH with R27S
VL: B1 VL with Y31A, Y34G, Y37A
notes: as for B10
B23: AB1 alanine variant 10 (H:S28A) (antibody, V domains shown)
VH: B1 VH with R27A
VL: B1 VL with Y34G
notes: as for B4
B24: AB1 alanine variant 18 (L:R116A) (antibody, V domains shown)
VH: B1 VH with R27S
VL: B1 VL with Y34G, R101A
notes: as for B4
B25: AB1 alanine variant 17 (L:Y38A) (antibody, V domains shown)
VH: B1 VH with R27S
VL: B1 VL with Y34G, Y37A
notes: as for B4
B26: AB1 affinity maturation variant 17 (L:K36R) (antibody, V domains shown)
VH: B1 VH with R27S
VL: B1 VL with Y34G, K35R
notes: as for B4
B27: AB1 alanine variant 4 (H:N113A) (antibody, V domains shown)
VH: B1 VH with R27S, N103A
VL: B1 VL with Y34G
notes: as for B4
B28: AB1 affinity maturation variant 18 (L:Y38R) (antibody, V domains shown)
VH: B1 VH with R27S
VL: B1 VL with Y34G, Y37R
notes: as for B4
B29: AB1 affinity maturation variant 20 (L:Q106Y) (antibody, V domains shown)
VH: B1 VH with R27S
VL: B1 VL with Y34G, Q95Y
notes: IMGT numbering; IgG1, as m1; also called neutral control mutation; source: HEK293FT, transiently transfected, purified (Protein A)
B30: AB1 alanine variant 2 (H:T35A) (antibody, V domains shown)
VH: B1 VH with R27S, T30A
VL: B1 VL with Y34G
notes: as for B4
B31: AB1 alanine variant 14 (L:Y31A) (antibody, V domains shown)
VH: B1 VH with R27S
VL: B1 VL with Y31A, Y34G
notes: as for B4

Each binder was assayed against murine CCL20 (mouse) (UniProt O89093) (assay: not given). Conditions: not given.

| fold decrease in antibody IC50 against parental AB1, CCR6 CHO-K1 β-arrestin assay with 4 nM muCCL20; blocks muCCL20 with muCCR6 [fold] | Binder |
| --- | --- |
| 4 | B1 |
| 4 | B2 |
| 2 | B3 |

Molecular target: T1, biotinylated murine CCL20, O89093
Experiment: capture ELISA
Conditions: chain shown with the change; highest mAb concentration, log[nM] about 1.8; plate-coated anti-Fc antibody to capture the antibody variants; parent: est. 1.8; read off a plot

| response [A450] | Binder |
| --- | --- |
| 0.86 | B4 |

Molecular target: T2, murine CCL20
Experiment: SPR
Conditions: not given

| koff [s⁻¹] | Binder |
| --- | --- |
| 0.0077 | B5 |
| 0.0029 | B6 |
| 0.007 | B7 |
| 0.0042 | B8 |

Molecular target: T2, murine CCL20
Experiment: SPR
Conditions: not given
Remark: another data set of the same source

| Kd [nM] | Binder |
| --- | --- |
| 9.1 | B5 |
| 2.3 | B6 |
| 8.4 | B7 |
| 2.8 | B8 |

What follows are binders tested against T3, murine CCL20 (Mus musculus, UniProt O89093) (assay: SPR; Biacore T200; muCCL20 immobilised on a CM4 chip (~30 RU); Fab 0.02-50 nM at 100 uL/min; HBS-EP pH 7.4; 1:1 model; apparent KD = koff/kon). Conditions: both partners purified.
T3 construct: CCL20, mouse; recombinant; also called muCCL20; mouse CCL20; source: in-house, standard mammalian cell expression; purified

| binding result | fold improvement in KD against parental AB1 [fold] | Binder |
| --- | --- | --- |
| binds | – | B5 |
| – | 4 | B6 |
| binds | – | B7 |
| binds | – | B8 |

The binders below were run against T3, murine CCL20 (assay: ELISA; mouse or human CCL20 coated at 2 ug/mL on Maxisorp plates overnight at 4°C; antibody dilutions starting at 60 nM; detected with anti-Fc-HRP). Conditions: both partners purified.

| binding result | Binder |
| --- | --- |
| binds | B9 |

The binders below were run against T4, biotinylated murine CCL20 (Mus musculus, UniProt O89093, biotin) (assay: ELISA; capture ELISA: plate-coated anti-mouse Fc antibody (1 ug/mL) captures the antibody variant (5 ug/mL); biotinylated muCCL20 titrated from 0 to 600 nM, 1 h). Conditions: both partners purified.
T4 construct: CCL20, mouse; recombinant; m2 with biotin; also called biotinylated muCCL20; muCCL20 antigen; source: in-house, standard mammalian cell expression; biotinylated

| binding result | Binder |
| --- | --- |
| binds | B4 |
| no binding (tested: 600 nM) | B10 |
| binds | B9 |
| no binding (tested: 600 nM) | B11 |
| no binding (tested: 600 nM) | B12 |
| binds | B13 |
| binds | B14 |
| no binding (tested: 600 nM) | B15 |
| binds | B1 |
| no binding (tested: 600 nM) | B16 |
| no binding (tested: 600 nM) | B17 |
| binds | B18 |
| no binding (tested: 600 nM) | B19 |
| no binding (tested: 600 nM) | B20 |
| binds | B21 |
| no binding (tested: 600 nM) | B22 |
| binds | B23 |
| binds | B24 |
| binds | B3 |
| no binding (tested: 600 nM) | B25 |
| binds | B26 |
| no binding (tested: 600 nM) | B27 |
| binds | B28 |
| binds | B29 |
| binds | B30 |
| binds | B31 |
